The values below are quoted from earlier work in PMC6006206.

This series concerns the target SufE (UniProt A7ZME4).
Sequence of UniProt A7ZME4 (A7ZME4 whole entry): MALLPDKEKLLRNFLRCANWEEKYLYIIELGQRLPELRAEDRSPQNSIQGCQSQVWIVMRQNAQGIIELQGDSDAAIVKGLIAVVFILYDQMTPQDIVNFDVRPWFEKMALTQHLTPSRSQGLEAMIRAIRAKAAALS

With SufS (from UniProt A7ZME5), the Kd (usually the free concentration of one partner at which half of the binding sites on the other are occupied at equilibrium, for simple one-to-one binding) was 360 nM.
